Measurements taken from article doi:10.1101/2024.03.03.583237 (bioRxiv, 2024).

Molecular target: SARS-CoV-2 spike trimer (soluble S-trimer) (SARS-CoV-2 Wuhan-Hu-1 (NC_045512), UniProt P0DTC2)
Assay: live-cell binding assay

B1: S2L20-CVR (scFv, V domains shown)
VH: EVQLVESGGGVVQPGGSLRLSCAASGFTFNSYGMHWVRQAPGKGLEWVAFIRYDGGNKYYADSVKGRFTISRDNSKNTLYLQMKSLRAEDTAVYYCANLKDSRYSGSYYDYWGQGTLVTVS
VL: not shown
binding result: binds
